We go through five molecules from US20170015742A1 (published 2017).

The target in assay [1] is recombinant human VEGF165 (human, UniProt P15692 207-395). Briefly: cell-based or functional assay.
The target of assay [2] is recombinant human PDGF-BB (human, UniProt P01127 82-190). Briefly: cell-based or functional assay.
Sequence of recombinant human PDGF-BB (P01127 82-190 limits assumed): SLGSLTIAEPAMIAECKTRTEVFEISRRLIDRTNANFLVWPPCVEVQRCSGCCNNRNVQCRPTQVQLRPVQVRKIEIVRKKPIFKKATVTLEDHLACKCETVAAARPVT

Sequence of recombinant human VEGF165 (P15692 other isoform, or with tags, fused parts or gaps limits assumed): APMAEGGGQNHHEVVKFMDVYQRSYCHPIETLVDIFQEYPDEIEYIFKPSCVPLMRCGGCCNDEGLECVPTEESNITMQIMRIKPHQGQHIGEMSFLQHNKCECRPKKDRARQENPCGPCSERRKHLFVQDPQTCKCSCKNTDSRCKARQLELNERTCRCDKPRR

B1: 4G8.2-GS10-9E8.4 (bispecific antibody, human IgG1, kappa, L234A L235A)
heavy: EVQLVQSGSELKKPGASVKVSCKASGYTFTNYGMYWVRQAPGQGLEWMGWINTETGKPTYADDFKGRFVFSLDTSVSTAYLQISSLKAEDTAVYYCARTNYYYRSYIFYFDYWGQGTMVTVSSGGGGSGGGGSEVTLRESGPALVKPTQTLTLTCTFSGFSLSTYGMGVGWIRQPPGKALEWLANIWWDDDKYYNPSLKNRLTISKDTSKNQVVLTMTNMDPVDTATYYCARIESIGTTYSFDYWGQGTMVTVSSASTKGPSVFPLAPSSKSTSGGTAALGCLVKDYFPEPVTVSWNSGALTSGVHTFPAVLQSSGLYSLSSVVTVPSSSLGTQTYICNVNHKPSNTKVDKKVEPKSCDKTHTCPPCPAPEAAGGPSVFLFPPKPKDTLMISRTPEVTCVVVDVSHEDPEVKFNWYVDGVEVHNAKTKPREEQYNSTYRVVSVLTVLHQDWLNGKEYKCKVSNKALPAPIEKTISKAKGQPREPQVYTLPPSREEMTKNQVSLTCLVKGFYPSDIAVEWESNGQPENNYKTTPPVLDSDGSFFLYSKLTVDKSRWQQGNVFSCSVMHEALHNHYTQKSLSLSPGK
light: ATQLTQSPSLSASVGDRVTITCRASESVSTHMHWYQQKPGKQPKLLIYGASNLESGVPSRFSGSGSGTDFTLTISSLQPEDFATYFCQQSWNDPFTFGQGTKLEIKRGGSGGGGSGEFVLTQSPGTLSLSPGERATLSCERSSGDIGDSYVSWYQQKPGQAPRLVIYADDQRPSGIPDRFSGSGSGTDFTLTISRLEPEDFAVYYCQSYDINIDIVFGGGTKVEIKRTVAAPSVFIFPPSDEQLKSGTASVVCLLNNFYPREAKVQWKVDNALQSGNSQESVTEQDSKDSTYSLSSTLTLSKADYEKHKVYACEVTHQGLSSPVTKSFNRGEC
Regarding B1, the “Potency IC50 (nM) HMVEC-d hVEGF165” value in assay [1] stood at 0.221 nM. The “Potency IC50 (nM) NIH-3T3 hPDGF-BB” value in assay [2] was more than 5 nM.

B2: 4G8.5-GS10-9E8.4 (bispecific antibody, human IgG1, kappa, L234A L235A)
heavy: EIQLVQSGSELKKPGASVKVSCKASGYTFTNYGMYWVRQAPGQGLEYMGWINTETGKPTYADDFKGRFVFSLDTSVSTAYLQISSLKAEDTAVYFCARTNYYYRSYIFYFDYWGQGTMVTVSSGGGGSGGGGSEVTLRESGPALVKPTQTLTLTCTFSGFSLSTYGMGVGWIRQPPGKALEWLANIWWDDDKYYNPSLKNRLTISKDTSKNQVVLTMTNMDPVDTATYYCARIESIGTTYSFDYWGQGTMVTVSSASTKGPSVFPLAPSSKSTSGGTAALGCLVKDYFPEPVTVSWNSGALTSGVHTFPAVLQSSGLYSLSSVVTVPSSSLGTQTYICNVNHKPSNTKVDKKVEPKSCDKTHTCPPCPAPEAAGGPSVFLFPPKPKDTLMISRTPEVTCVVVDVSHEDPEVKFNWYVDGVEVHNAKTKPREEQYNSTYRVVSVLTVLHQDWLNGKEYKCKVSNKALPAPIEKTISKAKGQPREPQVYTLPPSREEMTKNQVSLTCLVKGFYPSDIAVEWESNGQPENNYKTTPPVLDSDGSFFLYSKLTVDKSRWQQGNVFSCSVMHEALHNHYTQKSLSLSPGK
light: ATQLTQSPSLSASVGDRVTITCRASESVSTHMHWYQQKPGKQPKLLIYGASNLESGVPSRFSGSGSGTDFTLTISSLQPEDFATYFCQQSWNDPFTFGQGTKLEIKRGGSGGGGSGEFVLTQSPGTLSLSPGERATLSCERSSGDIGDSYVSWYQQKPGQAPRLVIYADDQRPSGIPDRFSGSGSGTDFTLTISRLEPEDFAVYYCQSYDINIDIVFGGGTKVEIKRTVAAPSVFIFPPSDEQLKSGTASVVCLLNNFYPREAKVQWKVDNALQSGNSQESVTEQDSKDSTYSLSSTLTLSKADYEKHKVYACEVTHQGLSSPVTKSFNRGEC
Take B2: in assay [1], the “Potency IC50 (nM) HMVEC-d hVEGF165” value is 0.079 nM. Further, in assay [2], the “Potency IC50 (nM) NIH-3T3 hPDGF-BB” value was more than 5 nM.

B3: 4G8.12-GS10-9E8.4 (bispecific antibody, human IgG1, kappa, L234A L235A)
heavy: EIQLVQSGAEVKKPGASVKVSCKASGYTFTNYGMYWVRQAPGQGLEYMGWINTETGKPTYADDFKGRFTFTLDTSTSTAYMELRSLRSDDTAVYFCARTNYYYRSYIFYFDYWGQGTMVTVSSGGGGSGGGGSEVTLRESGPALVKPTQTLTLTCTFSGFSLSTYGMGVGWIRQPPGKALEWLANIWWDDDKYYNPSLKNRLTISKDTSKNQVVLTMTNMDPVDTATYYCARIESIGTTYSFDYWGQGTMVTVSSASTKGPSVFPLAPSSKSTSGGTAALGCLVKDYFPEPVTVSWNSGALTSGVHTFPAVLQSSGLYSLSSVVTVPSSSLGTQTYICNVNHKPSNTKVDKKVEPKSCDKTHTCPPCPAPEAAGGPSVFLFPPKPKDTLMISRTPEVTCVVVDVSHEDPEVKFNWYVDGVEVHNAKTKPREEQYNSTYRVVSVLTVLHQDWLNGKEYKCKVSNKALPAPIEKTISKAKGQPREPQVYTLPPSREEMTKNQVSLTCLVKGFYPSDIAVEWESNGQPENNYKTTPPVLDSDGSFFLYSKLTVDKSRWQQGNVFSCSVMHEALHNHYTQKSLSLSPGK
light: DTVLTQSPATLSLSPGERATLSCRASESVSTHMHWYQQKPGQAPRLLIYGASNLESGVPARFSGSGSGTDFTLTISSLEPEDFAVYFCQQSWNDPFTFGQGTKLEIKRGGSGGGGSGEFVLTQSPGTLSLSPGERATLSCERSSGDIGDSYVSWYQQKPGQAPRLVIYADDQRPSGIPDRFSGSGSGTDFTLTISRLEPEDFAVYYCQSYDINIDIVFGGGTKVEIKRTVAAPSVFIFPPSDEQLKSGTASVVCLLNNFYPREAKVQWKVDNALQSGNSQESVTEQDSKDSTYSLSSTLTLSKADYEKHKVYACEVTHQGLSSPVTKSFNRGEC
Take B3: the “Potency IC50 (nM) HMVEC-d hVEGF165” value in assay [1] was determined as 0.079 nM. Also, the “Potency IC50 (nM) NIH-3T3 hPDGF-BB” value in assay [2] came to 0.227 nM.

B4: 4G8.4-GS10-9E8.4 (bispecific antibody, human IgG1, kappa, L234A L235A)
heavy: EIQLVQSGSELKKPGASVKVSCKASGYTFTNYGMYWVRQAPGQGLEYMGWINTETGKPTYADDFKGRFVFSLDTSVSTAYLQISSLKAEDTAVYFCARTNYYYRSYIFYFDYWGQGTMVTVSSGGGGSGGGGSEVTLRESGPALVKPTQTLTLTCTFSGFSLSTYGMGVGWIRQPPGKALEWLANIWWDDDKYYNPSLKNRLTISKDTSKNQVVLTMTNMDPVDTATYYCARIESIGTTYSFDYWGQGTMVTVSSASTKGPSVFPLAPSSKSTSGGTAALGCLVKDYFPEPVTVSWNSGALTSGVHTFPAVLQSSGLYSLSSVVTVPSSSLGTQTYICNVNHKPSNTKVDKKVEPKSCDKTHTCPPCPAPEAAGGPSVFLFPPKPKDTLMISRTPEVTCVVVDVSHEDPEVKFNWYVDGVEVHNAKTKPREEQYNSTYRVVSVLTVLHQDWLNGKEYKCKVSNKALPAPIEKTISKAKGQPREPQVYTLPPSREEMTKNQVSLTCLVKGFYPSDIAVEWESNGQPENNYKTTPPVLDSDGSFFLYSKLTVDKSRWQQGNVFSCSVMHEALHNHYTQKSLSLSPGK
light: AIQLTQSPSSLSASVGDRVTITCRASESVSTHMHWYQQKPGKAPKLLIYGASNLESGVPSRFSGSGSGTDFTLTISSLQPEDFATYYCQQSWNDPFTFGQGTKLEIKRGGSGGGGSGEFVLTQSPGTLSLSPGERATLSCERSSGDIGDSYVSWYQQKPGQAPRLVIYADDQRPSGIPDRFSGSGSGTDFTLTISRLEPEDFAVYYCQSYDINIDIVFGGGTKVEIKRTVAAPSVFIFPPSDEQLKSGTASVVCLLNNFYPREAKVQWKVDNALQSGNSQESVTEQDSKDSTYSLSSTLTLSKADYEKHKVYACEVTHQGLSSPVTKSFNRGEC
In the case of B4, the “Potency IC50 (nM) HMVEC-d hVEGF165” value in assay [1] amounted to 0.281 nM. Moreover, the “Potency IC50 (nM) NIH-3T3 hPDGF-BB” value in assay [2] turned out to be 1.33 nM.

B5: AB014-GS10-9E8.4 VK-VH (bispecific antibody, human IgG1, kappa, L234A L235A)
heavy: EVQLVESGGGLVQPGGSLRLSCAASGYTFTNYGMNWVRQAPGKGLEWVGWINTYTGEPTYAADFKRRFTFSLDTSKSTAYLQMNSLRAEDTAVYYCAKYPHYYGSSHWYFDVWGQGTLVTVSSASTKGPSVFPLAPSSKSTSGGTAALGCLVKDYFPEPVTVSWNSGALTSGVHTFPAVLQSSGLYSLSSVVTVPSSSLGTQTYICNVNHKPSNTKVDKKVEPKSCDKTHTCPPCPAPEAAGGPSVFLFPPKPKDTLMISRTPEVTCVVVDVSHEDPEVKFNWYVDGVEVHNAKTKPREEQYNSTYRVVSVLTVLHQDWLNGKEYKCKVSNKALPAPIEKTISKAKGQPREPQVYTLPPSREEMTKNQVSLTCLVKGFYPSDIAVEWESNGQPENNYKTTPPVLDSDGSFFLYSKLTVDKSRWQQGNVFSCSVMHEALHNAYTQKSLSLSPGKGGSGGGGSGGEIVLTQSPGTLSLSPGERATLSCERSSGDIGDSYVSWYQQKPGQAPRLVIYADDQRPSGIPDRFSGSGSGTDFTLTISRLEPEDFAVYYCQSYDINIDIVFGGGTKVEIKGGGGSGGGGSGGGGSEVTLRESGPALVKPTQTLTLTCTFSGFSLSTYGMGVGWIRQPPGKALEWLANIWWDDDKYYNPSLKNRLTISKDTSKNQVVLTMTNMDPVDTATYYCARIESIGTTYSFDYWGQGTMVTVSS
light: not shown
In the case of B5, in assay [1], the “Potency IC50 (nM) HMVEC-d hVEGF165” value came to 0.086 nM. Besides, the “Potency IC50 (nM) NIH-3T3 hPDGF-BB” value in assay [2] came out at 0.074 nM.
